This is an account of results in patent publication US20220267463A1 (Hoffmann-La Roche, published 2022).

The target of assay [1] is T1, carcinoembryonic antigen (CEA) on MKN-45 cells (human, UniProt P06731 35-685).
T1 construct: whole, on cells; also called CEACAM5; Carcinoembryonic antigen-related cell adhesion molecule 5
T1 sequence (looked up): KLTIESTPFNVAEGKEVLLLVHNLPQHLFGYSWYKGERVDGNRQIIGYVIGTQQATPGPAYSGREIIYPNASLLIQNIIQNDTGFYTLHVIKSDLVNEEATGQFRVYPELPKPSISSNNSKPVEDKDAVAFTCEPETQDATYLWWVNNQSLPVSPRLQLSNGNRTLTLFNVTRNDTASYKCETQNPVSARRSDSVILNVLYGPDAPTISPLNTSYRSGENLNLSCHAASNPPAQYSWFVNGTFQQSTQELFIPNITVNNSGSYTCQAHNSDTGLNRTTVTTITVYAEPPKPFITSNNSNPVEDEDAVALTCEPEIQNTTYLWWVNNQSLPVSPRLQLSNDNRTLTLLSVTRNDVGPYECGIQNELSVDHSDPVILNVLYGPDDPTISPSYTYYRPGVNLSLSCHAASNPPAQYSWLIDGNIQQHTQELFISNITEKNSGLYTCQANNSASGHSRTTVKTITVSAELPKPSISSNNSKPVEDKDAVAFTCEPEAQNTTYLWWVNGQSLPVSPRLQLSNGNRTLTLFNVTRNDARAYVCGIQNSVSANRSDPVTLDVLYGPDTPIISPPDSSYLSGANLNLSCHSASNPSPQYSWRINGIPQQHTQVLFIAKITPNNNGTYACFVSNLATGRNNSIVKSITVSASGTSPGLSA
The assay is described as follows: flow cytometry on MKN45 cells, hemibody mixed 1:1 with human ISO control, detection with anti-human IgG(H+L) (title: A488; legend box: FITC). (In general: Flow cytometry measures light scatter and fluorescence of single cells or particles in a stream.)
Method: To assess the functionality of the split antibodies or hemibodies, MKN-45 cells were detached from the culture vessel using accutase at 37° C. for 10 minutes. Subsequently, the cells were washed twice in PBS, and seeded into 96 well v-bottom plates to a final density of 4×10⁶ cells/well.
Subsequently, the cells were incubated for 1 h on ice and washed twice in PBS. The cell pellet was resuspended and 40 μl/well of detection reagent was added, either <human IgG(H+L)>FITC, (10 μg/ml) or Pb_Dotam_FITC 1:100=>(10 μg/ml) in PBS/5% FCS. After 60 min incubation on ice, the cells were washed twice in PBS and resuspended in 200 μl PBS/5% FCS for measurement of FITC fluorescence using a FACS canto.

Assay [2] has as its target T1, carcinoembryonic antigen (CEA) on …. The assay is described as follows: flow cytometry on MKN-45 cells, detection with anti-huIgG(H+L)-Alexa488. As to the method: MKN-45 cells were detached from the culture bottle using Trypsin and were counted using a Casy cell counter. After pelleting at 4° C., 300 g the cells were resuspended in FACS Buffer (2.5% FCS in PBS), adjusted to 2.0E+06 cells/mL dispensed to 96-well PP V-bottom-Platte (25 μL/well=5.0E+04 Zellen/well).
The CEA specific SPLIT antibodies (P1AF0712 or P1AF0713 respectively) were adjusted to 40 μg/mL in FACS buffer, resulting in a final concentration of 10 μg/mL. […] The cells were then washed twice in FACS buffer and resuspended in 70 μl/well FACS buffer for measurement using a FACS Canto (BD, Pharmingen). […] Both antibodies were added to the cells either separated followed by buffer or combined and incubated at 4° C. for 1 h. The cells were then washed twice in FACS buffer. After washing, the cells were resuspended in 50 μL FACS-buffer containing secondary antibody (<huIgG(H+L)>-Alexa488, c=10 μg/mL) and incubated 1 h at 4° C.

B1: PRIT Split Antibody with DOTAM-VH-P1AD8749 (antibody, human IgG1, kappa, L234A L235A)
heavy 1: QVQLVQSGAEVKKPGASVKVSCKASGYTFTEFGMNWVRQAPGQGLEWMGWINTKTGEATYVEEFKGRVTFTTDTSTSTAYMELRSLRSDDTAVYYCARWDFAYYVEAMDYWGQGTTVTVSSASTKGPSVFPLAPSSKSTSGGTAALGCLVKDYFPEPVTVSWNSGALTSGVHTFPAVLQSSGLYSLSSVVTVPSSSLGTQTYICNVNHKPSNTKVDKKVEPKSCDKTHTCPPCPAPEAAGGPSVFLFPPKPKDTLMISRTPEVTCVVVDVSHEDPEVKFNWYVDGVEVHNAKTKPREEQYNSTYRVVSVLTVLHQDWLNGKEYKCKVSNKALGAPIEKTISKAKGQPREPQVCTLPPSRDELTKNQVSLSCAVKGFYPSDIAVEWESNGQPENNYKTTPPVLDSDGSFFLVSKLTVDKSRWQQGNVFSCSVMHEALHNHYTQKSLSLSPG
heavy 2: not shown
light: DIQMTQSPSSLSASVGDRVTITCKASAAVGTYVAWYQQKPGKAPKLLIYSASYRKRGVPSRFSGSGSGTDFTLTISSLQPEDFATYYCHQYYTYPLFTFGQGTKLEIKRTVAAPSVFIFPPSDEQLKSGTASVVCLLNNFYPREAKVQWKVDNALQSGNSQESVTEQDSKDSTYSLSSTLTLSKADYEKHKVYACEVTHQGLSSPVTKSFNRGEC
notes: Full length anti-CEA (CH1A1A) human IgG1 with knob-into-hole and P329G LALA; one heavy chain carries the DOTAM VH at its C-terminus; No DOTAM VL; Bivalent for CEA; also called CEA-split-DOTAM-VH; P1_B
B1: the “EC50 (read off the curve)” value in assay [1] is around 1 µg/mL.

B2: P1AF0712 (antibody, human IgG1, kappa, L234A L235A)
heavy 1: not shown
heavy 2: QVQLVQSGAEVKKPGASVKVSCKASGYTFTEFGMNWVRQAPGQGLEWMGWINTKTGEATYVEEFKGRVTFTTDTSTSTAYMELRSLRSDDTAVYYCARWDFAYYVEAMDYWGQGTTVTVSSASTKGPSVFPLAPSSKSTSGGTAALGCLVKDYFPEPVTVSWNSGALTSGVHTFPAVLQSSGLYSLSSVVTVPSSSLGTQTYICNVNHKPSNTKVDKKVEPKSCDKTHTCPPCPAPEAAGGPSVFLFPPKPKDTLMISRTPEVTCVVVDVSHEDPEVKFNWYVDGVEVHNAKTKPREEQYNSTYRVVSVLTVLHQDWLNGKEYKCKVSNKALGAPIEKTISKAKGQPREPQVCTLPPSRDELTKNQVSLSCAVKGFYPSDIAVEWESNGQPENNYKTTPPVLDSDGSFFLVSKLTVDKSRWQQGNVFSCSVMHEALHNHYTQKSLSLSPGGGGGSGGGGSGGGGSGGGGSQAVVIQESALTTPPGETVTLTCGSSTGAVTASNYANWVQEKPDHLFTGLIGGHNNRPPGVPARFSGSLIGDKAALTIAGTQTEDEAIYFCALWYSDHWVIGGGTKLTVL
light: DIQMTQSPSSLSASVGDRVTITCKASAAVGTYVAWYQQKPGKAPKLLIYSASYRKRGVPSRFSGSGSGTDFTLTISSLQPEDFATYYCHQYYTYPLFTFGQGTKLEIKRTVAAPSVFIFPPSDEQLKSGTASVVCLLNNFYPREAKVQWKVDNALQSGNSQESVTEQDSKDSTYSLSSTLTLSKADYEKHKVYACEVTHQGLSSPVTKSFNRGEC
notes: also called CEA specific SPLIT antibody (DOTA-VL); P6_A
B2 gave an EC50 in assay [2] of 2.7 µg/mL.

B3: P1AF0713 (antibody, human IgG1, kappa, L234A L235A)
heavy 1: QVQLVQSGAEVKKPGASVKVSCKASGYTFTEFGMNWVRQAPGQGLEWMGWINTKTGEATYVEEFKGRVTFTTDTSTSTAYMELRSLRSDDTAVYYCARWDFAYYVEAMDYWGQGTTVTVSSASTKGPSVFPLAPSSKSTSGGTAALGCLVKDYFPEPVTVSWNSGALTSGVHTFPAVLQSSGLYSLSSVVTVPSSSLGTQTYICNVNHKPSNTKVDKKVEPKSCDKTHTCPPCPAPEAAGGPSVFLFPPKPKDTLMISRTPEVTCVVVDVSHEDPEVKFNWYVDGVEVHNAKTKPREEQYNSTYRVVSVLTVLHQDWLNGKEYKCKVSNKALGAPIEKTISKAKGQPREPQVCTLPPSRDELTKNQVSLSCAVKGFYPSDIAVEWESNGQPENNYKTTPPVLDSDGSFFLVSKLTVDKSRWQQGNVFSCSVMHEALHNHYTQKSLSLSPG
heavy 2: not shown
light: DIQMTQSPSSLSASVGDRVTITCKASAAVGTYVAWYQQKPGKAPKLLIYSASYRKRGVPSRFSGSGSGTDFTLTISSLQPEDFATYYCHQYYTYPLFTFGQGTKLEIKRTVAAPSVFIFPPSDEQLKSGTASVVCLLNNFYPREAKVQWKVDNALQSGNSQESVTEQDSKDSTYSLSSTLTLSKADYEKHKVYACEVTHQGLSSPVTKSFNRGEC
notes: also called CEA specific SPLIT antibody (DOTA-VH-AST); P6_B
B3 gave an EC50 in assay [2] of 2.3 µg/mL.

Broadly, the EC50 (read off the curve) is the concentration at which the effect is half-maximal. Low readings indicate a more potent agent, high ones a less potent agent. In general, EC50 refers to the concentration at which the effect is half-maximal.
